Data published in publication doi:10.1101/2021.04.01.437942 (bioRxiv, 2021).

Molecular target: SARS-CoV-2 RBD, truncated version (residues 333–529) (SARS-CoV-2, UniProt P0DTC2)
Assay: crystal structure
Settings: both partners purified

B1: COVA1–16 Fab (Fab, V domains shown)
VH: QVQLVQSGAEVKKPGASVKVSCKASGYTFTSYYMHWVRQAPGQGLEWMGIINSSGGSTSYAQKFQGRVTMTRDTSTSTVYMELSSLRSEDTAVYYCARPPRNYYDRSGYYQRAEYFQHWGQGTLVTVSS
VL: DIQLTQSPSSLSASVGDRVTITCQASQDISNYLNWYQQRPGKAPKLLIYDASNLETGVPSRFSGSGSGTDFTFTISSLQPEDIATYYCQQYDNPPLTFGGGTKLEIK
notes: also called Fab COVA1–16
- binding result: binds
